Legend:
[1] = molecular target: T1, Recombinant Human DLL4 (R&D Systems Cat#1506-D4/CF) (human, UniProt Q9NR61 27-524); experiment: Multispot ECL (MSD), antigen spotted on plate, Fab 145 nM; blank spot 357
T1 construct: Bought recombinant protein; also called rHuman DLL4; delta-like protein 4

[2] = molecular target: T2, rHuman EGF R/Fc Chimera, CF (R&D Systems Cat#344-ER) (human, UniProt P00533 25-645); experiment: as above
T2 construct: Bought recombinant protein; also called epidermal growth factor receptor; Fc part of the bought chimera not given

[3] = molecular target: T3, rHuman HGF R/c-MET/Fc Chimera, CF (R&D Systems Cat#358-MT/CF) (human, UniProt P08581 25-932); experiment: as above
T3 construct: Bought recombinant protein; also called HGF R/Fc; hepatocyte growth factor receptor; Fc part of the bought chimera not given

[4] = molecular target: T4, rHuman IGF-1 sR, (IGF-1 sR), CF (R&D Systems Cat#391-GR) (human, UniProt P08069 31-932); experiment: as above
T4 construct: Bought recombinant soluble receptor; also called insulin-like growth factor-1 soluble receptor

[5] = molecular target: T1, Recombinant Human DLL4 (R&D Systems …); experiment: Multispot ECL (MSD), antigen spotted on plate, Fab 580 nM; blank spot 679
[6] = molecular target: T5, rHuman ErbB2/Fc Chimera, CF (R&D Systems Cat#1129-ER) (human, UniProt P04626 23-652); experiment: as above
T5 construct: Bought recombinant protein; also called human epidermal growth factor 2 receptor; Fc part of the bought chimera not given

[7] = molecular target: T2, rHuman EGF R/Fc Chimera, CF (R&D …); experiment: as above
[8] = molecular target: T3, rHuman HGF R/c-MET/Fc Chimera, CF (R&D …); experiment: as above
[9] = molecular target: T4, rHuman IGF-1 sR, (IGF-1 sR), CF (R&D …); experiment: as above
[10] = molecular target: T1, Recombinant Human DLL4 (R&D Systems …); experiment: Multispot ECL (MSD), antigen spotted on plate, Fab 9.1 nM; blank spot 276
[11] = molecular target: T5, rHuman ErbB2/Fc Chimera, CF (R&D …); experiment: as above
[12] = molecular target: T2, rHuman EGF R/Fc Chimera, CF (R&D …); experiment: as above
[13] = molecular target: T3, rHuman HGF R/c-MET/Fc Chimera, CF (R&D …); experiment: as above
[14] = molecular target: T4, rHuman IGF-1 sR, (IGF-1 sR), CF (R&D …); experiment: as above
[15] = molecular target: T1, Recombinant Human DLL4 (R&D Systems …); experiment: Multispot ECL (MSD), antigen spotted on plate, Fab 36.3 nM; blank spot 314
[16] = molecular target: T5, rHuman ErbB2/Fc Chimera, CF (R&D …); experiment: as above
[17] = molecular target: T2, rHuman EGF R/Fc Chimera, CF (R&D …); experiment: as above
[18] = molecular target: T3, rHuman HGF R/c-MET/Fc Chimera, CF (R&D …); experiment: as above
[19] = molecular target: T4, rHuman IGF-1 sR, (IGF-1 sR), CF (R&D …); experiment: as above
[20] = molecular target: T6, Recombinant Human DLL4 (R&D Systems Cat#1506-D4/CF) (human, UniProt Q9NR61 27-524); experiment: control in the Notch reporter assay; binding assay not described
T6 construct: bought recombinant protein; also called rHuman DLL4; delta-like protein 4

[21] = molecular target: T7, rHuman IGF-1 sR, CF (R&D Systems Cat#391-GR) (human, UniProt P08069 31-932); experiment: Multispot ECL
T7 construct: bought soluble receptor; also called insulin-like growth factor-1 soluble receptor

[22] = molecular target: T6, Recombinant Human DLL4 (R&D Systems …); experiment: Multispot ECL titration

T3 sequence (P08581 25-932, change not shown): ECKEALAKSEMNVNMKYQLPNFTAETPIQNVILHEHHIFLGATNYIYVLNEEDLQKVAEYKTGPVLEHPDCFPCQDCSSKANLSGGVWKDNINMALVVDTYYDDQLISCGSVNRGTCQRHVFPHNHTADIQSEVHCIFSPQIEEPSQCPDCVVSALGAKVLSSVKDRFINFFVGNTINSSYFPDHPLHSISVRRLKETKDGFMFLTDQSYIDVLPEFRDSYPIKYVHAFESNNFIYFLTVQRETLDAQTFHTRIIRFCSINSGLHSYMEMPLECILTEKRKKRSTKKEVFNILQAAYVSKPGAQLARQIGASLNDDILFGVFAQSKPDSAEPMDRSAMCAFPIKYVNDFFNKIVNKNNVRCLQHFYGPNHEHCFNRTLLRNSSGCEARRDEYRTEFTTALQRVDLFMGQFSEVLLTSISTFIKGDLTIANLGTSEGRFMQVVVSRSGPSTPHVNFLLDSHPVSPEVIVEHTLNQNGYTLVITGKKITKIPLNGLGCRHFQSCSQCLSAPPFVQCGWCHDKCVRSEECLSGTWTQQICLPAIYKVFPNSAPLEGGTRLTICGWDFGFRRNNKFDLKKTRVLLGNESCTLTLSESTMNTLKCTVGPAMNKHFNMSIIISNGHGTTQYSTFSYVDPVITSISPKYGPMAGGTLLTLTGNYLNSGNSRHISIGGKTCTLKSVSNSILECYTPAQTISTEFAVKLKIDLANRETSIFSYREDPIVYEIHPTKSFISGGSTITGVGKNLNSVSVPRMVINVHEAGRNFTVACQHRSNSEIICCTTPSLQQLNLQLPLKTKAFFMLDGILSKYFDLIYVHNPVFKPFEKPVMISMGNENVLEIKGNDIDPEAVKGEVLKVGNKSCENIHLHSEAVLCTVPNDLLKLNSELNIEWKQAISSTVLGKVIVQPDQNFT

B1: Fab VH4-34_IGHD7-27*01_IGHJ4*01 & V1-4_IGLJ4*01 (Fab, V domains shown)
VH: QVQLQQWGAGLLKPSETLSLTCAVYGGSFSGYYWSWIRQPPGKGLEWIGEINHSGSTNYNPSLKSRVTISVDTSKNQFSLKLSSVTAADTAVYYCARANWGDYFDYWGQGTLVTVSS
VL: QSALTQPASVSGSPGQSITISCTGTSSDVGGYNYVSWYQQHPGKAPKLMIYEVSNRPSGVSNRFSGSKSGNTASLTISGLQAEDEADYYCSSYTSSSTLFVFGGGTQLIIL
notes: Tested as a Fab made in E. coli; The heavy chain variable region was cloned into Plasmid A (CH1 constant region, His6 and Flag tags); The lambda light chain variable region was cloned into Plasmid E (lambda CL); Only the variable domains are tied to this Fab by name
ECL signal at 145 nM Fab [1]: 2140
ECL signal at 145 nM Fab [2]: 856
ECL signal at 145 nM Fab [3]: 1170
ECL signal at 145 nM Fab [4]: 794
ECL signal at 580 nM Fab [5]: 4420
ECL signal at 580 nM Fab [6]: 1710
ECL signal at 580 nM Fab [7]: 1630
ECL signal at 580 nM Fab [8]: 2340
ECL signal at 580 nM Fab [9]: 1360
ECL signal at 9.1 nM Fab [10]: 1030
ECL signal at 9.1 nM Fab [11]: 987
ECL signal at 9.1 nM Fab [12]: 800
ECL signal at 9.1 nM Fab [13]: 894
ECL signal at 9.1 nM Fab [14]: 788
ECL signal at 36.3 nM Fab [15]: 1400
ECL signal at 36.3 nM Fab [16]: 1030
ECL signal at 36.3 nM Fab [17]: 831
ECL signal at 36.3 nM Fab [18]: 1060
ECL signal at 36.3 nM Fab [19]: 799

B2: control Fab VH6-1_IGHD6-13*01_IGHJ4*01 and V2-17_IGLJ2*01 (Fab, V domains shown)
VH: QVQLQQSGPGLVKPSQTLSLTCAISGDSVSSNSAAWNWIRQSPSRGLEWLGRTYYRSKWYNDYAVSVKSRITINPDTSKNQFSLQLNSVTPEDTAVYYCAREGYSSSWYDYFDYWGQGTLVTVSS
VL: SYELTQPPSVSVSPGQTARITCSGDALPKQYAYWYQQKPGQAPVLVIYKDSERPSGIPERFSGSSSGTTVTLTISGVQAEDEADYYCQSADSSGTYPVVFGGGTKLTVL
binding result [20]: no binding

B3: Fab VH1-46_IGHD6-6*01_IGHJ1*01 S102A/S103P/S104F & L6_IGKJ1*01 (Fab, V domains shown)
VH: QVQLVQSGAEVKKPGASVKVSCKASGYTFTSYYMHWVRQAPGQGLEWMGIINPSGGSTSYAQKFQGRVTMTRDTSTSTVYMELSSLRSEDTAVYYCAREEYAPFSAEYFQHWGQGTLVTVSS
VL: not shown
notes: Fab; also called H:APF & L:wt; APF triple mutant
binding result [21]: no binding
fold binding affinity against the parent antibody [22]: 10 fold

Reference: patent US20120316071A1 (published 2012)
